Data set [1] addresses T1, BnaA.bZIP1-His (Brassica napus, UniProt A0A078IFD5 1-139).
T1 sequence: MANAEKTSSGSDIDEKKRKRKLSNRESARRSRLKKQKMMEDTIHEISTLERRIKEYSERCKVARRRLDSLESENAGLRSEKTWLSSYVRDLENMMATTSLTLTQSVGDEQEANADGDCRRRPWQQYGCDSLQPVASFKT
Put plainly: EMSA; EMSA: 10 ul with 2 ul 5x EMSA/Gel-Shift Binding Buffer (Beyotime), 30 nM Cy5 probe, 30 min at 25 C; 6% native PAGE, 0.5x TBE pH 8.3, 4 C. To be noted: protein: recombinant, tags: His, pET-32a fusion (N-terminal vector tag), blunt. In general terms: In EMSA bound probe runs differently from free probe, usually more slowly.

The target in data set [2] is T1, BnaA.bZIP1-His. Put plainly: competition; unlabeled probe at 200x, 400x, 800x reduces shift of Cy5-p59; EMSA: 10 ul with 2 ul 5x EMSA/Gel-Shift Binding Buffer (Beyotime), 30 nM Cy5 probe, 30 min at 25 C; 6% native PAGE, 0.5x TBE pH 8.3, 4 C. Conditions: protein: recombinant; tags: His; pET-32a fusion (N-terminal vector tag); blunt.

B1: p59 (dsDNA)
DNA 1: AACGAAAGCCACCTCACGTCGTGCTATTTTCGGTGTAACCTTAACGGTGGATCTTTAAA
DNA 2: TTTAAAGATCCACCGTTAAGGTTACACCGAAAATAGCACGACGTGAGGTGGCTTTCGTT
On to B1, for which the binding result in data set [1] (label: Cy5 (p59-CY5-F strand)) is recorded as “binds”.

B2: mp59 (dsDNA)
DNA 1: AACGAAAGCCACCTCTATGAGTGCTATTTTCGGTGTAACCTTAACGGTGGATCTTTAAA
DNA 2: TTTAAAGATCCACCGTTAAGGTTACACCGAAAATAGCACTCATAGAGGTGGCTTTCGTT
As to B2, the binding result in data set [1] (label: Cy5 (mp59-CY5-F strand)) was “no binding”.

B3: p59 unlabeled competitor (dsDNA)
DNA 1: AACGAAAGCCACCTCACGTCGTGCTATTTTCGGTGTAACCTTAACGGTGGATCTTTAAA
DNA 2: TTTAAAGATCCACCGTTAAGGTTACACCGAAAATAGCACGACGTGAGGTGGCTTTCGTT
On to B3, for which, in data set [2], the binding result is “binds”.

The record behind these values is PMC5732959, “BnaA.bZIP1 Negatively Regulates a Novel Small Peptide Gene, BnaC.SP6, Involved in Pollen Activity”.
